Test results reported in the supplement of paper PMC7877785.
± gives the uncertainty stated by the source.

Experiment: self-splicing fitness, log relative to wild type (ln ratio); higher = more splicing; Tetrahymena group I intron in knt gene, E. coli kanamycin selection, DiMSum; sequences stand for … in CUCUCU…GGAGGGAAAAGUUAUCAGGCAUGCACCUGGUAGCUAGUCUUUAAACCAAUAGAUUGCAUCGGUUUAAAAGGCAAGACCGUCAAAUUGCGGGAAAGGGGUCAACAGCCGUUCAGUACCAAGUCUCAGGGGAAACUUUGAGAUGGCCUUGCAAAGGGUAUGGUAAUAAGCUGACGGACAUGGUCCUAACCACGCAGCCAAGUCCUAAGUCAACAGAUCUUCUGUUGAUAUGGAUGCAGUUCACAGACUAAAUGUCGGUCGGGGAAGAUGUAUUCUUCUCAUAAGAUAUAGUCGGACCUCUCCUUAAUGGGAGCUAGCGGAUGAAGUGAUGCAACACUGGAGCCGCUGGGAACUAAUUUGUAUGCGAAAGUAUAUUGAUUAGUUUUGGAGUACUCGUGGUCG
Method in brief: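 A randomised library covering all eight P1ex-region intron nucleotides was built with the intron in the knt kanamycin-resistance gene on pET-22b(+) and held in E. coli BL21(DE3). Cells were grown overnight at 37°C or 30°C on LB agar, with or without 25 μg/mL kanamycin, plus 100 μg/mL carbenicillin, 50 μM IPTG and 0.2% rhamnose, and pooled colonies were amplicon-sequenced on an Illumina HiSeq 2500. DiMSum fitness is the error-weighted combination of wild-type-normalised replicate fold changes, kanamycin versus none.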

Sequence | self-splicing fitness (ln) (30 °C) | self-splicing fitness (ln) (37 °C)
CCGGAGCAAUAUUACGUUGG | -3.57 ± 0.24 | -2.47 ± 0.26
CCGGAGCAAUAUUACGUUUC | -2.4 ± 0.31 | -2.74 ± 0.48
CCGUAGCAAUAUUACGACGA | -0.268 ± 0.11 | -0.689 ± 0.1
CCGUAGCAAUAUUACGAGAU | -3.86 ± 0.32 | -2.29 ± 0.3
CCGUAGCAAUAUUACGCACC |  | -2.21 ± 0.37
CCGUAGCAAUAUUACGCCAA | -3.21 ± 0.41 | -2.77 ± 0.4
CCGUAGCAAUAUUACGCCAU | -3.26 ± 0.25 | -2.77 ± 0.36
CCGUAGCAAUAUUACGCGAG | -3.82 ± 0.24 | -2.76 ± 0.32
CCGUAGCAAUAUUACGCUAG | -3.02 ± 0.28 | -2.14 ± 0.25
CCGUAGCAAUAUUACGCUUG | -1.48 ± 0.069 | -0.347 ± 0.075
CCGUAGCAAUAUUACGGCCG | -1.05 ± 0.16 | -0.466 ± 0.18
CCGUAGCAAUAUUACGGGGC | -2.28 ± 0.24 | -2.31 ± 0.34
CCGUAGCAAUAUUACGGGUC | -2.96 ± 0.21 | -2.55 ± 0.2
CCGUAGCAAUAUUACGGGUG | -3.59 ± 0.21 | -2.11 ± 0.16
CCGUAGCAAUAUUACGGUGC | -2.96 ± 0.16 | -1.93 ± 0.16
CCGUAGCAAUAUUACGUAAU | -4.17 ± 0.26 | -1.96 ± 0.26
CCGUAGCAAUAUUACGUAUU | -4.16 ± 0.28 | -3.58 ± 0.39
CCGUAGCAAUAUUACGUCAA |  | -1.2 ± 0.27
CCGUAGCAAUAUUACGUCGC | -3.45 ± 0.41 | -1.77 ± 0.26
CCGUAGCAAUAUUACGUGAA | -3.73 ± 0.18 | -2.34 ± 0.18
CCGUAGCAAUAUUACGUGGG | -4.15 ± 0.2 | -3.05 ± 0.17
CCUAAGCAAUAUUACGAAAU | -2.79 ± 0.18 | -2.77 ± 0.29
CCUAAGCAAUAUUACGAACA | -3.01 ± 0.29 | -1.96 ± 0.32
CCUAAGCAAUAUUACGAAGU | -2.62 ± 0.13 | -1.21 ± 0.13
CCUAAGCAAUAUUACGACAC | -3.33 ± 0.44 | -2.03 ± 0.29

Sequence | self-splicing fitness (ln) (30 °C) | self-splicing fitness (ln) (37 °C)
CCUAAGCAAUAUUACGAGCG | -0.823 ± 0.097 | -0.11 ± 0.11
CCUAAGCAAUAUUACGAUCC | -3.83 ± 0.29 | 
CCUAAGCAAUAUUACGCGUU | -3.27 ± 0.15 | -2.69 ± 0.16
CCUAAGCAAUAUUACGCUAA |  | -2.31 ± 0.27
CCUAAGCAAUAUUACGCUUC | -3.16 ± 0.28 | 
CCUAAGCAAUAUUACGGGAA | -3.52 ± 0.22 | -1.83 ± 0.2
CCUAAGCAAUAUUACGGGAU | -4.35 ± 0.22 | -3.29 ± 0.21
CCUAAGCAAUAUUACGGGCU | -3.03 ± 0.33 | -2.46 ± 0.33
CCUAAGCAAUAUUACGGUCG | -0.889 ± 0.065 | -0.252 ± 0.086
CCUAAGCAAUAUUACGGUGA | -3.89 ± 0.25 | -2.28 ± 0.16
CCUAAGCAAUAUUACGGUUU | -4.49 ± 0.34 | -3.07 ± 0.34
CCUAAGCAAUAUUACGUAUG | -1.82 ± 0.082 | -0.95 ± 0.087
CCUAAGCAAUAUUACGUGGG | -3.51 ± 0.16 | -2.5 ± 0.15
CCUAAGCAAUAUUACGUUAG | -1.95 ± 0.11 | -2.03 ± 0.11
CCUCAGCAAUAUUACGAAAA | -2.77 ± 0.22 | -2.26 ± 0.33
CCUCAGCAAUAUUACGAACU | -2.63 ± 0.37 | -1.64 ± 0.38
CCUCAGCAAUAUUACGAAGG | -3.6 ± 0.34 | -1.84 ± 0.4
CCUCAGCAAUAUUACGAAGU | -3.54 ± 0.17 | -1.88 ± 0.15
CCUCAGCAAUAUUACGACGU | -3.17 ± 0.18 | -2.68 ± 0.24
CCUCAGCAAUAUUACGACUC | -3.68 ± 0.43 | 
CCUCAGCAAUAUUACGAGGA | -2.54 ± 0.29 | -1.09 ± 0.14
CCUCAGCAAUAUUACGAUCG | -0.809 ± 0.1 | -0.00907 ± 0.14
CCUCAGCAAUAUUACGCAGA | -3.39 ± 0.34 | -2.27 ± 0.33
CCUCAGCAAUAUUACGCCUA | -2.6 ± 0.21 | -1.6 ± 0.2
